Measured values from publication PMC3892959.

Legend:
[1] = biological target: T1, rhVEGF165 (recombinant human vascular endothelial growth factor 165) (human, UniProt P15692-4 27-191); test: fluorescence polarization
[2] = biological target: T1, rhVEGF165 (recombinant human vascular …); test: affinity capillary electrophoresis

CGAGGATATCCGATTGTGGGTGACGTATTGGACACCTTCCCG (ssDNA) [C 2]
Kd [1]: 162 nM
Kd [2]: 21 nM

GGAAGCCCGCTGTGACATCTGGAGCCGGTTCCCGAGCCA (ssDNA) [C 1]
Kd [1]: 101 nM
Kd [2]: 49 nM

TGGCTGTTATTTCTCTCGGCCTCAGATCTTGGGCCCAACA (ssDNA) [C 3]
Kd [1]: 164 nM
Kd [2]: 66 nM

ATTCTGGGGAGTGGTACGTAAGCAGTGCCACCACGGTTAT (ssDNA) [R 2]
Kd [1]: 88 nM
Kd [2]: 72 nM

CCTTGTCATGATAGCTATGTTTCAGCCAACCATACCCGCT (ssDNA) [R 3]
Kd [1]: 46 nM
Kd [2]: 22 nM

GTCTGTACCAATCTAAAAGTGTATATTATATCTACGAGCCT (ssDNA) [R 1]
Kd [1]: 100 nM
Kd [2]: 53 nM
